Experimental data: patent US20190105378

Target: FLAG-TEV recognition sequence-granzyme B AA21-240 fusion whose recognition site (SEQ ID NO: 6) has a G instead of Q, P10144
Sequence (P10144 whole entry, looked up, the tested form may be a part): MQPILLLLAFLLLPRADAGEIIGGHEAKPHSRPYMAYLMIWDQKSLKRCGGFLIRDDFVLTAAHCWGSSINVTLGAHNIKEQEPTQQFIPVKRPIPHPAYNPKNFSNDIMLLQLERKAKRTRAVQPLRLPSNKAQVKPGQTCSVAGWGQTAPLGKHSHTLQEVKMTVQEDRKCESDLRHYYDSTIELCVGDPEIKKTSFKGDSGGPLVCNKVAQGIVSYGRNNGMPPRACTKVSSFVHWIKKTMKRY

B1: tobacco etch virus protease with N-terminal FLAG sequence (product of plasmid pSTdna 1023) (protein)
chain: MDYKDDDDKGDYKDDDDKGGGTGESLFKGPRDYNPISSTICHLTNESDGHTTSLYGIGFGPFIITNKHLFRRNNGTLLVQSLHGVFKVKNTTTLQQHLIDGRDMIIIRMPKDFPPFPQKLKFREPQREERICLVTTNFQTKSMSSMVSDTSCTFPSSDGIFWKHWIQTKDGQCGSPLVSTRDGFIVGIHSASNFTNTNNYFTSVPKNFMELLTNQEAQQWVSGWRLNADSVLWGGHKVFMSKPEEPFQPVKEATQLMNELVYSQ
  cleavage by TEV: no cleavage by TEV takes place (not shown)
